# Test results reported in the supplement of paper PMC9112550, “Optimization of the antimicrobial peptide Bac7 by deep mutational scanning” (BMC Biology, 2022).
# Tested on: Escherichia coli TOP10
# Assay: shrunken log2 fold change of peptide-encoding DNA abundance (4.5 h post-induction vs induction); higher = less antimicrobial activity (less host growth inhibition)
# Conditions: time post-induction: 4.5 h; library: site-saturation at positions 5, 18, 19, 20
# 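Further: peptides expressed intracellularly from a pBAD plasmid library in pooled LB shake-flask culture, induced with 0.3% L-arabinose, DNA abundance read by NGS, three biological replicates, DESeq2 with apeglm shrinkage.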
row,Sequence,shrunken log2 fold change
1,RRIRYRPPRLPRPRPRPYYSPRP,0.0106
2,RRIRKRPPRLPRPRPRPGSPPRP,0.166
3,RRIRNRPPRLPRPRPRPIKLPRP,-0.0869
4,RRIRMRPPRLPRPRPRPWCWPRP,0.366
5,RRIRNRPPRLPRPRPRPNVTPRP,-0.361
6,RRIRIRPPRLPRPRPRPGKVPRP,-0.621
7,RRIRPRPPRLPRPRPRPTAFPRP,0.238
8,RRIRSRPPRLPRPRPRPFRQPRP,3.58
9,RRIRKRPPRLPRPRPRPWDIPRP,-0.0322
10,RRIRIRPPRLPRPRPRPRSFPRP,-0.0641
11,RRIRWRPPRLPRPRPRPHKAPRP,-0.000946
12,RRIRQRPPRLPRPRPRPKHAPRP,0.401
13,RRIRSRPPRLPRPRPRPICIPRP,-0.494
14,RRIRTRPPRLPRPRPRPQHNPRP,-0.324
15,RRIRERPPRLPRPRPRPSHFPRP,0.000406
16,RRIRERPPRLPRPRPRPIRAPRP,0.0262
17,RRIRVRPPRLPRPRPRPTRMPRP,0.0492
18,RRIRIRPPRLPRPRPRPRMSPRP,-0.323
19,RRIRIRPPRLPRPRPRPEMIPRP,-0.0257
20,RRIRPRPPRLPRPRPRPHHPPRP,-0.224
21,RRIRPRPPRLPRPRPRPEERPRP,-0.0232
22,RRIRGRPPRLPRPRPRPNPEPRP,0.511

row,Sequence,shrunken log2 fold change
1,RRIRARPPRLPRPRPRPSFWPRP,0.354
2,RRIRYRPPRLPRPRPRPGTNPRP,-0.163
3,RRIRYRPPRLPRPRPRPCGVPRP,2.83
4,RRIRGRPPRLPRPRPRPLRDPRP,1.3
5,RRIRPRPPRLPRPRPRPGSKPRP,-0.0791
6,RRIRYRPPRLPRPRPRPQLMPRP,-0.509
7,RRIRCRPPRLPRPRPRPMHTPRP,-0.106
8,RRIRVRPPRLPRPRPRPVQGPRP,0.0692
9,RRIRTRPPRLPRPRPRPLETPRP,0.0461
10,RRIRRRPPRLPRPRPRPHQLPRP,-0.225
11,RRIRHRPPRLPRPRPRPYKNPRP,-0.646
12,RRIRHRPPRLPRPRPRPEQDPRP,0.057
13,RRIRQRPPRLPRPRPRPCHFPRP,0.173
14,RRIRPRPPRLPRPRPRPHEYPRP,-0.25
15,RRIRDRPPRLPRPRPRPSALPRP,0.162
16,RRIRYRPPRLPRPRPRPPIFPRP,-0.381
17,RRIRQRPPRLPRPRPRPEGYPRP,-0.0294
18,RRIRHRPPRLPRPRPRPVQHPRP,-0.0639
19,RRIRERPPRLPRPRPRPIPTPRP,0.0239
20,RRIRFRPPRLPRPRPRPRSPPRP,1.06
21,RRIRGRPPRLPRPRPRPPFLPRP,0.444
22,RRIRHRPPRLPRPRPRPFEVPRP,-0.172

row,Sequence,shrunken log2 fold change
1,RRIRYRPPRLPRPRPRPIWNPRP,0.0337
2,RRIRARPPRLPRPRPRPPCFPRP,0.482
3,RRIRWRPPRLPRPRPRPKWQPRP,0.0119
4,RRIRNRPPRLPRPRPRPNESPRP,-0.121
5,RRIRLRPPRLPRPRPRPYPQPRP,-0.364
6,RRIRVRPPRLPRPRPRPATFPRP,-0.387
7,RRIRFRPPRLPRPRPRPPMLPRP,0.638
8,RRIRERPPRLPRPRPRPGIGPRP,-0.0295
9,RRIRWRPPRLPRPRPRPTIYPRP,0.113
10,RRIRHRPPRLPRPRPRPYRKPRP,-1.23
11,RRIRLRPPRLPRPRPRPIGVPRP,-0.0539
12,RRIRDRPPRLPRPRPRPYVAPRP,-0.0638
13,RRIRTRPPRLPRPRPRPRGEPRP,0.152
14,RRIRSRPPRLPRPRPRPYYAPRP,-0.551
15,RRIRKRPPRLPRPRPRPAAGPRP,0.896
16,RRIRLRPPRLPRPRPRPDAQPRP,0.34
17,RRIRVRPPRLPRPRPRPIEFPRP,0.0379
18,RRIRWRPPRLPRPRPRPMQGPRP,0.00185
19,RRIRLRPPRLPRPRPRPWHLPRP,-0.28
20,RRIRWRPPRLPRPRPRPELMPRP,0.0289
21,RRIRKRPPRLPRPRPRPTQGPRP,0.909
22,RRIRQRPPRLPRPRPRPDLIPRP,0.0281

row,Sequence,shrunken log2 fold change
1,RRIRQRPPRLPRPRPRPSLNPRP,-0.216
2,RRIRLRPPRLPRPRPRPAQEPRP,-0.023
3,RRIRGRPPRLPRPRPRPKNFPRP,0.0583
4,RRIRVRPPRLPRPRPRPEMSPRP,0.0206
5,RRIRCRPPRLPRPRPRPKCGPRP,0.0778
6,RRIRKRPPRLPRPRPRPRACPRP,0.474
7,RRIRSRPPRLPRPRPRPFMFPRP,-0.156
8,RRIRLRPPRLPRPRPRPWLTPRP,-0.18
9,RRIRRRPPRLPRPRPRPSEPPRP,0.115
10,RRIRIRPPRLPRPRPRPVFMPRP,-0.275
11,RRIRRRPPRLPRPRPRPEIDPRP,-0.00263
12,RRIRFRPPRLPRPRPRPEVFPRP,0.181
13,RRIRNRPPRLPRPRPRPPNPPRP,0.411
14,RRIRERPPRLPRPRPRPSIAPRP,-0.259
15,RRIRDRPPRLPRPRPRPVPKPRP,0.32
16,RRIRERPPRLPRPRPRPTQHPRP,0.239
17,RRIRARPPRLPRPRPRPNHRPRP,0.00751
18,RRIRKRPPRLPRPRPRPKQHPRP,0.657
19,RRIRIRPPRLPRPRPRPVILPRP,-0.423
20,RRIRGRPPRLPRPRPRPCDWPRP,0.519
21,RRIRTRPPRLPRPRPRPIPGPRP,-0.36
22,RRIRLRPPRLPRPRPRPCCEPRP,0.812

row,Sequence,shrunken log2 fold change
1,RRIRQRPPRLPRPRPRPCPGPRP,-0.0035
2,RRIRRRPPRLPRPRPRPHIEPRP,-0.00196
3,RRIRWRPPRLPRPRPRPVAWPRP,0.489
4,RRIRVRPPRLPRPRPRPNTTPRP,-0.227
5,RRIRTRPPRLPRPRPRPTAKPRP,-0.143
6,RRIRTRPPRLPRPRPRPVHWPRP,0.842
7,RRIRRRPPRLPRPRPRPQYFPRP,-0.0475
8,RRIRYRPPRLPRPRPRPSQDPRP,-0.561
9,RRIRVRPPRLPRPRPRPCVMPRP,-0.0841
10,RRIRWRPPRLPRPRPRPACSPRP,0.528
11,RRIRWRPPRLPRPRPRPCSFPRP,0.0624
12,RRIRCRPPRLPRPRPRPIRCPRP,-0.00208
13,RRIRCRPPRLPRPRPRPFTKPRP,-0.628
14,RRIRPRPPRLPRPRPRPIVAPRP,0.133
15,RRIRPRPPRLPRPRPRPSYEPRP,-0.178
16,RRIRLRPPRLPRPRPRPSTGPRP,-0.221
17,RRIRRRPPRLPRPRPRPFPHPRP,0.292
18,RRIRMRPPRLPRPRPRPGSQPRP,0.926
19,RRIRHRPPRLPRPRPRPQQTPRP,0.0173
20,RRIRFRPPRLPRPRPRPNIVPRP,-0.199
21,RRIRGRPPRLPRPRPRPWIIPRP,-0.121
